# According to publication PMC9482650, “Quantitative fragmentomics allow affinity mapping of interactomes” (Nature Communications, 2022):
# Assays:
# Assay in all cases: holdup assay
# Design in all cases: key: below the threshold = too weak to quantify, mostly under pKd 3.1 to 4
# [1] = target: T1, LIN7B, Q9HAP6
# T1 sequence (Q9HAP6 88-185, limits assumed, looked up): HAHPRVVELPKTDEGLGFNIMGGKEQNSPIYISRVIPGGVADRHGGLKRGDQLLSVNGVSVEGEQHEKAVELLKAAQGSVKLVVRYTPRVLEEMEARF
# [2] = target: Inadl_5, Q8NI35
# Chain of Inadl_5, Q8NI35 (Q8NI35 673-780): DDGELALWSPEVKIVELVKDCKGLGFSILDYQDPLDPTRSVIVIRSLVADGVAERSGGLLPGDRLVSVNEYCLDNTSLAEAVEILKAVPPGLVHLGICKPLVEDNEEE
# [3] = target: T2, DLG3_2, Q92796
# T2 sequence (Q92796 221-321, limits assumed, looked up): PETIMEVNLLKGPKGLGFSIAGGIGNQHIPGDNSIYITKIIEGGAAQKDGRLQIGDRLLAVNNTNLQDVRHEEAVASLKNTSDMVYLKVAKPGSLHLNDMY
# [4] = target: T3, GRIP1_7, Q9Y3R0
# T3 sequence (Q9Y3R0 999-1096, limits assumed, looked up): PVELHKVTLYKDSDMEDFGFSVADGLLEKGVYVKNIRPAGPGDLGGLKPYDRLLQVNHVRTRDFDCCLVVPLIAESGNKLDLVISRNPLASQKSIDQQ
# [5] = target: T4, PCLO, Q9Y6V0
# T4 sequence (Q9Y6V0 4491-4600, limits assumed, looked up): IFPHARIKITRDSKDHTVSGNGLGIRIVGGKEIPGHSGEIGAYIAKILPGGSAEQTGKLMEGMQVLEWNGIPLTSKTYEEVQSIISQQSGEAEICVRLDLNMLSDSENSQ
# [6] = target: T5, DFNB31_1, Q9P202
# T5 sequence (Q9P202 135-233, limits assumed, looked up): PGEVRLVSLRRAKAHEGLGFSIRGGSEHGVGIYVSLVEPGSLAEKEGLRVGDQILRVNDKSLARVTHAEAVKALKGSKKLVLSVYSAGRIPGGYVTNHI
# [7] = target: DLG1_1, Q12959
# [8] = target: GORASP1, Q9BQQ3
# Chain of GORASP1, Q9BQQ3 (Q9BQQ3 1-208): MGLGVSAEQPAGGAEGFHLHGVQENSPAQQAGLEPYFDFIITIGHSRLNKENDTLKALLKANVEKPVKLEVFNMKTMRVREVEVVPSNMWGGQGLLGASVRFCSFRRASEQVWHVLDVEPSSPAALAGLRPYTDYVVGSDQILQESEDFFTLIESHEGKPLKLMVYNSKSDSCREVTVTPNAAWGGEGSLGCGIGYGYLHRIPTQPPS
# [9] = target: T6, APBA2_1, Q99767
# T6 sequence (Q99767 563-664, limits assumed, looked up): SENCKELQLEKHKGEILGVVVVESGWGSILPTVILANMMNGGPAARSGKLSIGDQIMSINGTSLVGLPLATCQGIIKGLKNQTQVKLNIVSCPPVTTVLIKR
# [10] = target: T7, SNTB1, Q13884
# T7 sequence (Q13884 107-205, limits assumed, looked up): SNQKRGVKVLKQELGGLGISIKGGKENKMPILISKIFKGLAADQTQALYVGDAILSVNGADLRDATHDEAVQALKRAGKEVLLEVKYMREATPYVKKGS
# [11] = target: LNX1_3, Q8TBB1
# Chain of LNX1_3, Q8TBB1 (Q8TBB1 500-596): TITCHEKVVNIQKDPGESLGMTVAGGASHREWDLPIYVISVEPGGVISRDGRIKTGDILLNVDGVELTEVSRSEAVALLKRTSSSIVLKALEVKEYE
# [12] = target: Inadl_9, Q8NI35
# Chain of Inadl_9, Q8NI35 (Q8NI35 1530-1615): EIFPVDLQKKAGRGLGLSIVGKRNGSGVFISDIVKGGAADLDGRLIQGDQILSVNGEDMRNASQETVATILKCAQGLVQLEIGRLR
# [13] = target: T8, HTRA3, P83110
# T8 sequence (P83110 354-453, limits assumed, looked up): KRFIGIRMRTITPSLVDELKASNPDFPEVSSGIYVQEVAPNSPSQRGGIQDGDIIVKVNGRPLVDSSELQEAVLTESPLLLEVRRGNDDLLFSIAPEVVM
# [14] = target: DLG2_3, Q15700
# [15] = target: SCRIB_3, Q14160
# Chain of SCRIB_3, Q14160 (Q14160 999-1103): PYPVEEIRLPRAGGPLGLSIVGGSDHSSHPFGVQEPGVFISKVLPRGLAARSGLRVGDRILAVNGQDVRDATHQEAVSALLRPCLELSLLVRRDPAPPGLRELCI
# [16] = target: Inadl_10, Q8NI35
# Chain of Inadl_10, Q8NI35 (Q8NI35 1673-1763): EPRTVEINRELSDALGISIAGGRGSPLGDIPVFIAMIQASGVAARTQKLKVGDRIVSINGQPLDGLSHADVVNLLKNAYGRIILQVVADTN
# [17] = target: PDZRN4_1, Q6ZMN7
# Chain of PDZRN4_1, Q6ZMN7 (Q6ZMN7 213-318): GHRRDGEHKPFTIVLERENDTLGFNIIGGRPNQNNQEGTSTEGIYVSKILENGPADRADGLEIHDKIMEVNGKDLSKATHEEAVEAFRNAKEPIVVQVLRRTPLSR
# [18] = target: AHNAK1, Q09666
# Chain of AHNAK1, Q09666 (Q09666 4-100): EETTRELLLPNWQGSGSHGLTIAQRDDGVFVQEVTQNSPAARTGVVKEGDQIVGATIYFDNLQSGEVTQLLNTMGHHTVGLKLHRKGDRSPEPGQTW
# [19] = target: T9, GRIP1_4, Q9Y3R0
# T9 sequence (Q9Y3R0 467-571, limits assumed, looked up): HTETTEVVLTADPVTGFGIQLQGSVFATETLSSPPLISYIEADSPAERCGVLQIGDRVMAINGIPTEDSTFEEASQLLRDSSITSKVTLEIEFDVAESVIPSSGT
# [20] = target: PICK1, Q9NRD5
# Chain of PICK1, Q9NRD5 (Q9NRD5 17-115): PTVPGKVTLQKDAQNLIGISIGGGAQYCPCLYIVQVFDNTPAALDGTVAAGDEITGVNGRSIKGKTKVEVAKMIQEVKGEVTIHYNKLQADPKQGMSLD
# [21] = target: DLG1_2, Q12959
# [22] = target: T10, PDZD2_2, O15018
# T10 sequence (O15018 329-429, limits assumed, looked up): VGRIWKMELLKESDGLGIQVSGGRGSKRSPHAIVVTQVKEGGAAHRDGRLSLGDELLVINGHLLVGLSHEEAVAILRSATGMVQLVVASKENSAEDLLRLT
# [23] = target: T11, GRIP1_3, Q9Y3R0
# T11 sequence (Q9Y3R0 247-346, limits assumed, looked up): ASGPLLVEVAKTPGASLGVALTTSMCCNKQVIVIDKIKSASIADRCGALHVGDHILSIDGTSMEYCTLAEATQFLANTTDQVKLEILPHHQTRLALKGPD
# [24] = target: Inadl_1, Q8NI35
# Chain of Inadl_1, Q8NI35 (Q8NI35 113-229): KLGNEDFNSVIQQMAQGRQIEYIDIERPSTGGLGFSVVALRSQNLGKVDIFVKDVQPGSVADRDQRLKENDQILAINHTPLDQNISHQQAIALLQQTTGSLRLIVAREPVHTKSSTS
# [25] = target: NHERF4_1, Q86UT5-2
# Chain of NHERF4_1, Q86UT5-2 (Q86UT5 other isoform, or with tags, fused parts or gaps): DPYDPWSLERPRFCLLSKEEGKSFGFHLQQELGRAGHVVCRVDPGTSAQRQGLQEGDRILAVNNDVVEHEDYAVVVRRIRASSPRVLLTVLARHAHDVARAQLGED
# [26] = target: T12, MPP7, Q5T2T1
# T12 sequence (Q5T2T1 134-230, limits assumed, looked up): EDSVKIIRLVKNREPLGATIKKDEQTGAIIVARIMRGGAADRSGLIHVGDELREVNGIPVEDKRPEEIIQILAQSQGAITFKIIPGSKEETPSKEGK
# [27] = plain residues with an end cap or a label only (N-terminal biotin on a linker: none)
# [28] = plain residues with an end cap or a label only (N-terminal biotin on a linker: ttds)
binder,measurement,setting,value
"DSKPPLPPDEWV [MERS-E, K9N5R3]",pKd,[1]; [27],below the threshold
same,pKd,[2]; [27],3.74
same,pKd,[3]; [27],3.96
same,pKd,[4]; [27],3.88
same,pKd,[5]; [27],below the threshold
same,pKd,[6]; [27],3.61
same,pKd,[7]; [27],below the threshold
same,pKd,[8]; [27],4.29
same,pKd,[9]; [27],below the threshold
same,pKd,[10]; [27],3.8
same,pKd,[11]; [27],below the threshold
same,pKd,[12]; [27],3.57
same,pKd,[13]; [27],5.66
same,pKd,[14]; [27],below the threshold
same,pKd,[15]; [27],3.9
same,pKd,[16]; [27],below the threshold
same,pKd,[17]; [27],3.49
same,pKd,[18]; [27],below the threshold
same,pKd,[19]; [27],below the threshold
same,pKd,[20]; [27],below the threshold
same,pKd,[21]; [27],3.57
same,pKd,[22]; [27],5.11
same,pKd,[23]; [27],below the threshold
same,pKd,[24]; [27],3.61
same,pKd,[25]; [27],below the threshold
same,pKd,[26]; [27],below the threshold
"HRTCYLVTQL [ASIC3, Q9UHC3]",pKd,[1]; [28],3.38
same,pKd,[2]; [28],below the threshold
same,pKd,[3]; [28],3.97
same,pKd,[4]; [28],below the threshold
same,pKd,[5]; [28],below the threshold
same,pKd,[6]; [28],3.67
same,pKd,[7]; [28],3.97
same,pKd,[8]; [28],3.93
same,pKd,[9]; [28],below the threshold
same,pKd,[10]; [28],4.07
same,pKd,[11]; [28],3.55
same,pKd,[12]; [28],below the threshold
same,pKd,[13]; [28],3.43
same,pKd,[14]; [28],4.17
same,pKd,[15]; [28],4.85
same,pKd,[16]; [28],3.84
same,pKd,[17]; [28],4.24
same,pKd,[18]; [28],3.33
same,pKd,[19]; [28],below the threshold
same,pKd,[20]; [28],3.63
same,pKd,[21]; [28],4.12
same,pKd,[22]; [28],3.37
same,pKd,[23]; [28],below the threshold
same,pKd,[24]; [28],3.52
same,pKd,[25]; [28],4.49
same,pKd,[26]; [28],3.25
